Laboratory results: patent publication US11951175B2, “Bioconjugates containing sulfamide linkers for use in treatment” (priority 2016, dated 2024)

How the values were obtained:
[1] = reported value for Adcetris; cited from earlier work
[2] = Rat safety study with cAC10 ADCs 115, 116 and Adcetris; assay type: in vivo, Wistar rats; conditions: as in legend of FIG. 19a-c: 115/116 at 40, 60, 70 or 80 mg/kg, Adcetris at 15, 20 or 40 mg/kg, mean body weight
Experimental: […] The test items were administered via intravenous (bolus) injection using a microflex infusion set introduced into a tail vein (2 mL/kg at 1 mL/min). One group of animals was treated with vehicle (control). After dosing, all animals were maintained for a 12-day observation period. Surviving animals were euthanized on day 12. Each animal was weighed at the time of randomization/selection, prior to dosing (day 0) and on all subsequent days up to day 12. Any individual animal with a single observation of >30% body weight loss or three consecutive measurements of >25% body weight loss was euthanized. All animals (including any found dead or killed moribund) were submitted to full necropsy procedures. Histopathological examinations of the liver, spleen and sciatic nerve was performed for all animals. Blood samples (including for animals killed moribund) were collected and subjected to determination of both haematological as well as serum clinical chemistry parameters.

[3] = tested on: Trastuzumab having high-mannose glycans; assay: Trimming of high-mannose trastuzumab glycans by EndoSH; assay type: biochemical; conditions: 1 w/w % EndoSH, 37° C., after 3 hours, 25 mM Tris pH 8, MS analysis
Experimental: Trastuzumab having high-mannose glycans (obtained via transient expression in CHO K1 cells in the presence of kifunensine performed by Evitria (Zurich, Switzerland)) (14 mg/mL) in 25 mM Tris buffer pH 8, was trimmed using a concentration of either 0.1 or 1 w/w % EndoSH. The reactions, 350 μg high-mannose trastuzumab (25 μL) and the appropriate amount of EndoSH, were stirred at 37° C. and analyzed by MS analysis over time, 1-3 hours. Samples were subjected to Fabricator treatment prior to analysis.

Trastuzumab = assay: Trimming of trastuzumab glycans by EndoSH; assay type: biochemical; conditions: 0.1 w/w % EndoSH, 37° C., after 1 hour, 25 mM Tris pH 8, MS analysis
Experimental: Trastuzumab (obtained from Epirus biopharma (Utrecht, The Netherlands); 14 mg/mL) in 25 mM Tris buffer pH 8, was trimmed using a concentration of either 0.1 or 1 w/w % EndoSH. The reactions, 350 μg trastuzumab (25 μL) and the appropriate amount of EndoSH, were stirred at 37° C. and analyzed by MS analysis over time, 1 to 3 hours. Samples were subjected to Fabricator treatment prior to analysis.

| Molecule | MTD (reported) [1] | MTD [2] | conversion to the trimmed product (core GlcNAc) [3] | conversion to the trimmed product (core GlcNAc) (Trastuzumab) |
| --- | --- | --- | --- | --- |
| Adcetris: positive control; DAR4 ADC with antibody brentuximab and payload MMAE [reference compound] | 18 mg/kg | 15 mg/kg |  |  |
| EndoSH (protein, fusion protein EndoSH) MPSIDSLHYLSENSKKEFKEELSKAGQESQKVKEILAKAQQADKQAQELAKMKIPEKIPMKPLHGPLYGGYFRTWHDKTSDPTEKDKVNSMGELPKEVDLAFIFHDWTKDYSLFWKELATKHVPKLNKQGTRVIRTIPWRFLAGGDNSGIAEDTSKYPNTPEGNKALAKAIVDEYVYKYNLDGLDVDVEHDSIPKVDKKEDTAGVERSIQVFEEIGKLIGPKGVDKSRLFIMDSTYMADKNPLIERGAPYINLLLVQVYGSQGEKGGWEPVSNRPEKTMEERWQGYSKYIRPEQYMIGFSFYEENAQEGNLWYDINSRKDEDKANGINTDITGTRAERYARWQPKTGGVKGGIFSYAIDRDGVAHQPKKYAKQKEFKDATDNIFHSDYSVSKALKTVMLKDKSYDLIDEKDFPDKALREAVMAQVGTRKGDLERFNGTLRLDNPAIQSLEGLNKFKKLAQLDLIGLSRITKLDRSVLPANMKPGKDTLETVLETYKKDNKEEPATIPPVSLKVSGLTGLKELDLSGFDRETLAGLDAATLTSLEKVDISGNKLDLAPGTENRQIFDTMLSTISNHVGSNEQTVKFDKQKPTGHYPDTYGKTSLRLPVANEKVDLQSQLLFGTVTNQGTLINSEADYKAYQNHKIAGRSFVDSNYHYNNFKVSYENYTVKVTDSTLGTTTDKTLATDKEETYKVDFFSPADKTKAVHTAKVIVGDEKTMMVNLAEGATVIGGSADPVNARKVFDGQLGSETDNISLGWDSKQSIIFKLKEDGLIKHWRFFNDSARNPETTNKPIQEASLQIFNIKDYNLDNLLENPNKFDDEKYWITVDTYSAQGERATAFSNTLNNITSKYWRVVFDTKGDRYSSPVVPELQILGYPLPNADTIMKTVTTAKELSQQKDKFSQKMLDELKIKEMALETSLNSKIFDVTAINANAGVLKDCIEKRQLLKKGGGGSGGGGSGGGGSHHHHHHEFGGGGSGGGGSGGGGSAPAPVKQGPTSVAYVEVNNNSMLNVGKYTLADGGGNAFDVAVIFAANINYDTGTKTAYLHFNENVQRVLDNAVTQIRPLQQQGIKVLLSVLGNHQGAGFANFPSQQAASAFAKQLSDAVAKYGLDGVDFDDEYAEYGNNGTAQPNDSSFVHLVTALRANMPDKIISLYNIGPAASRLSYGGVDVSDKFDYAWNPYYGTWQVPGIALPKAQLSPAAVEIGRTSRSTVADLARRTVDEGYGVYLTYNLDGGDRTADVSAFTRELYGSEAVRTP |  |  | Full conversions | Full conversions |
